# ± gives the uncertainty stated by the source.
# Test: self-splicing fitness, log relative to wild type (ln ratio); higher = more splicing; Tetrahymena group I intron in knt gene, E. coli kanamycin selection, DiMSum; sequences stand for … in CUCUCU…GGAGGGAAAAGUUAUCAGGCAUGCACCUGGUAGCUAGUCUUUAAACCAAUAGAUUGCAUCGGUUUAAAAGGCAAGACCGUCAAAUUGCGGGAAAGGGGUCAACAGCCGUUCAGUACCAAGUCUCAGGGGAAACUUUGAGAUGGCCUUGCAAAGGGUAUGGUAAUAAGCUGACGGACAUGGUCCUAACCACGCAGCCAAGUCCUAAGUCAACAGAUCUUCUGUUGAUAUGGAUGCAGUUCACAGACUAAAUGUCGGUCGGGGAAGAUGUAUUCUUCUCAUAAGAUAUAGUCGGACCUCUCCUUAAUGGGAGCUAGCGGAUGAAGUGAUGCAACACUGGAGCCGCUGGGAACUAAUUUGUAUGCGAAAGUAUAUUGAUUAGUUUUGGAGUACUCGUGGUCG
# Procedure, shortened: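 Six replicate transformations of E. coli BL21(DE3) with a pET-22b(+) library were grown overnight at 37°C or 30°C. The library randomised all eight P1ex-region intron nucleotides, the intron lying in the knt kanamycin-resistance gene, and plates were LB agar with or without 25 μg/mL kanamycin plus 100 μg/mL carbenicillin, 50 μM IPTG and 0.2% rhamnose. Pooled colonies were amplicon-sequenced on an Illumina HiSeq 2500, and fitness is the DiMSum error-weighted combination of wild-type-normalised replicate fold changes, kanamycin versus none.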
Sequence,self-splicing fitness (ln) (30 °C),self-splicing fitness (ln) (37 °C)
UGGAAGCAAUAUUACGCGCA,-0.534 ± 0.13,0.365 ± 0.13
UCACAGCAAUAUUACGUAAC,-3.69 ± 0.12,-2.79 ± 0.14
GGCUAGCAAUAUUACGCAUC,0.346 ± 0.16,0.785 ± 0.17
ACAUAGCAAUAUUACGGGGA,-2.65 ± 0.29,-1.92 ± 0.19
GCGCAGCAAUAUUACGUUCG,-1.7 ± 0.068,-1.47 ± 0.096
UGAUAGCAAUAUUACGCACC,-1.02 ± 0.15,-0.277 ± 0.22
CGACAGCAAUAUUACGGCGG,-0.174 ± 0.078,0.335 ± 0.11
AGUGAGCAAUAUUACGAAGC,-4.89 ± 0.46,-1.55 ± 0.33
UGGUAGCAAUAUUACGAAUG,-1.95 ± 0.12,-1.02 ± 0.12
UGUCAGCAAUAUUACGGACU,-1.36 ± 0.12,0.712 ± 0.13
GAGUAGCAAUAUUACGUUUC,-2.82 ± 0.18,-2.54 ± 0.27
AGGGAGCAAUAUUACGUAAU,–,-2.05 ± 0.26
AUGAAGCAAUAUUACGGUAG,-2.93 ± 0.17,-2.03 ± 0.23
GAACAGCAAUAUUACGUCCU,-1.24 ± 0.09,-0.941 ± 0.11
AGCUAGCAAUAUUACGGAAA,-3.11 ± 0.25,-0.395 ± 0.16
AACCAGCAAUAUUACGCCAC,-3.16 ± 0.19,-2.97 ± 0.4
GCUAAGCAAUAUUACGGUAU,-0.915 ± 0.083,-0.555 ± 0.1
CACGAGCAAUAUUACGAGGU,-4.07 ± 0.28,-3.23 ± 0.28
GCAUAGCAAUAUUACGGAUG,-3.15 ± 0.15,-0.657 ± 0.13
GGCUAGCAAUAUUACGAUUC,-0.162 ± 0.098,-0.0286 ± 0.13
AAGUAGCAAUAUUACGUUAA,-2.47 ± 0.23,-2.33 ± 0.18
ACCAAGCAAUAUUACGAUCU,-1.29 ± 0.064,0.0583 ± 0.076

Sequence,self-splicing fitness (ln) (30 °C),self-splicing fitness (ln) (37 °C)
CGGAAGCAAUAUUACGGCAC,-2.4 ± 0.25,-1.75 ± 0.38
CUACAGCAAUAUUACGGCCU,-4.36 ± 0.33,-1.68 ± 0.21
CCUGAGCAAUAUUACGGCCU,-2.68 ± 0.17,-2.96 ± 0.3
AUACAGCAAUAUUACGAUAU,-1.45 ± 0.092,-0.42 ± 0.1
UCAUAGCAAUAUUACGACGC,-1.6 ± 0.19,-0.696 ± 0.21
GUCCAGCAAUAUUACGCGCU,-2.67 ± 0.25,-2.51 ± 0.31
UAUCAGCAAUAUUACGACUC,-0.81 ± 0.11,-0.283 ± 0.12
CAUAAGCAAUAUUACGCCGU,-3.29 ± 0.36,-1.15 ± 0.19
AUCCAGCAAUAUUACGGUGG,-4.66 ± 0.33,-2.49 ± 0.21
UGGAAGCAAUAUUACGAAAA,-1.93 ± 0.22,-1.13 ± 0.19
GAGCAGCAAUAUUACGGGGC,-3.57 ± 0.21,-2.52 ± 0.25
AGGAAGCAAUAUUACGUUUA,-2.27 ± 0.12,-1.8 ± 0.14
CCAGAGCAAUAUUACGGAUC,-1.77 ± 0.32,–
UAUUAGCAAUAUUACGGUGU,-3.01 ± 0.25,-2.7 ± 0.3
CUAAAGCAAUAUUACGAAUC,-4.03 ± 0.14,-2.46 ± 0.16
GACUAGCAAUAUUACGAUGU,-2.24 ± 0.15,-1.53 ± 0.17
CUUAAGCAAUAUUACGGGUG,-0.609 ± 0.049,0.489 ± 0.07
UGAAAGCAAUAUUACGAGAC,–,-1.65 ± 0.38
GACAAGCAAUAUUACGCGCU,-1.29 ± 0.058,-0.594 ± 0.073
CUCCAGCAAUAUUACGUGUC,-3.56 ± 0.22,-2.55 ± 0.23
UCCAAGCAAUAUUACGGGCG,-1.05 ± 0.073,-0.839 ± 0.085

# Reference: the supplement of paper PMC7877785
